Experimental data from US11311577B2, “Coordinating gene expression using RNA destabilizing elements” (Chimera Bioengineering, Inc., priority 2018, dated 2022).

Test system: T-cells
Test: Removal of microRNA binding sites from an RDE: expression from constructs, GFP in T-cells
Assay type: cell-based
Details: MIR186 micro-RNA sites removed from the 3′-UTR of IL-2
Text: The AU-rich element from the 3′-UTR of IL-2 has mir-181 and mir 186 microRNA binding sites. Different combinations of the microRNA sites were removed from the 3′-UTR of IL-2. When the MIR186 micro-RNA sites were removed from the 3′-UTR of IL-2 the dynamic range of expression from constructs with this UTR increased 50 fold. The modified IL-2, 3′-UTR replaces CTT in the sequence with GAA and is shown below (the new GAA is underlined in the sequence):
Different combinations of the micro-RNA sites were removed from the 3′UTR of IFNg and tested for increased expression. When the mir125 micro-RNA sites were removed from the 3′-UTR of IFN-γ the expression rate from constructs with this UTR is increased.
Expression of GFP in T-cells, transfected with the RDE-GFP plus the microRNA sites, is compared to expression of GFP in T-cells with the RDE-GFP in which the microRNA sites have been removed, following activation with CD3/CD28 beads for 24 hours. The removal of the microRNA sites increased expression of the GFP by a factor of between 2-5 after 24 hours, relative to the cells with microRNA sites.

B1: modified IL-2, 3′-UTR: IL-2 3′-UTR with MIR186 micro-RNA sites removed, CTT replaced with GAA (SEQ ID NO: 22) (nucleic acid, listed as Homo sapiens)
DNA: TAATTAAGTGCTTCCCACTTAAAACATATCAGGCCTTCTATTTATTTAAATATTTAAATTTTATATTTATTGTTGAATGTATGGTTTGCTACCTATTGTAACTATTATTCTTAATCTTAAAACTATAAATATGGATCTTTTATGATTGAATTTGTAAGCCCTAGGGGCTCTAAAATGGTTTCACTTATTTATCCCAAAATATTTATTATTATGTTGAATGTTAAATATAGTATCTATGTAGATTGGTTAGTAAAACTATTTAATAAATTTGATAAATATAAA
increase of dynamic range of expression: 50 fold
